Where a SMILES comes first, the peptide text is derived from it. Where no end group is shown, it is not given here. [ ]: non-standard residue; d: D form. Hyp = O=C(O)[C@@H]1C[C@@H](O)CN1; 2Thi = N[C@@H](Cc1cccs1)C(=O)O
Experiments:
human BK-2 receptor = target: T1, human BK-2 receptor (Homo sapiens, UniProt P30411); experiment: Competition binding against 100 pM [3H]BK, membranes of COS-7 cells expressing the cloned receptor; details: for IC50: competition with [3H]BK, read-out: IC50, displacement of [3H]BK binding; for Inhibition of BK binding: at a concentration of 10 uM
T1 construct: permitted the construction of a cDNA clone encoding a full length BK-2 receptor from the cleavage fragments of the two clones; expressed in transfected cells; host or cells: COS-7 cells, vector pcDNA I-Neo, membranes
T1 sequence (P30411 1-364 isoform P30411-2): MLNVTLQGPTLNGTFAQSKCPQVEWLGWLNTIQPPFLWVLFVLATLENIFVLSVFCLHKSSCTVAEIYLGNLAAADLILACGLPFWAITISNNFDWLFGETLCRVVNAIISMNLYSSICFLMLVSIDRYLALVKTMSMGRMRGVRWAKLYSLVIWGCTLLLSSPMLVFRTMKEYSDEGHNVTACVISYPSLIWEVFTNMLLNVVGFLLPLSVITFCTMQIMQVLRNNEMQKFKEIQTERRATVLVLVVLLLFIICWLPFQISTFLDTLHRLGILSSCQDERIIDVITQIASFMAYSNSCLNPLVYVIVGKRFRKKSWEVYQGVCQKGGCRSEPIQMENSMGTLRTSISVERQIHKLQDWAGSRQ
Description: (§1) Cells are then harvested after 72 hours and the membranes containing the expressed receptor protein are prepared by scraping the cells in phosphate buffered saline solution and centrifuging for ten minutes at 500×g. The cell pellet is then resuspended and homogenized with a Polytron in 20 mM N-tris(hydroxymethyl)methyl-2-aminoethane sulfonic acid (TES, pH 6.8 at room temperature) buffer containing 1 mM 1,10 phenanthroline. The homogenate is then centrifuged for ten minutes at […]. The final membrane pellet is resuspended in assay buffer (TES plus 0.1% protease free bovine serum albumin, 5 uM MK-422 (enalaprilat; Gross et al., J. Pharmacol. and Exper. Ther. 216, 552-557 (1981)) and 140 ug/ml bacitracin using a motor-driven teflon-glass tissue homogenizer. Protein determination are performed by the method of Bradford using bovine IgG as the standard. See Bradford, M. A. Anal. Biochem. 72, 248-254 (1976).
Binding assays are then performed to determine receptor antagonist or agonist interaction. The assays utilized in the instant invention follow the method of Manning et al., J. Pharmacol. Exp. Ther., 237, 504-512 (1986). […] (BRANDEL, Gaithersburg, Md.). The tubes are then rinsed two times with 4 ml ice-cold […] and the filter bound radioactivity is quantitated by liquid scintillation counting. […] The competition and saturation experiments are analyzed using the EBDA program of McPherson. See McPherson, G. A. J Pharmacol. Methods 14, 213-218 (1985).
as §1, with “Cells were” for “Cells are”, “protein were” for “protein are”, “pellet was” for “pellet is”, “homogenate was” for “homogenate is”, “al., 1981)” for “al., J. Pharmacol. and Exper. Ther. 216, 552-557 (1981))”, “determination was” for “determination are”
Binding assays were then performed to determine receptor antagonist or agonist interaction. The assays utilized in the instant invention follow the method of Manning et al., J. Pharmacol. Exp. Ther., 237, 504-512 (1986). […] (BRANDEL, Gaithersburg, Md.). The tubes were rinsed two times with 4 ml ice-cold […] and the filter bound radioactivity was quantitated by liquid scintillation counting. […] The competition and saturation experiments were analyzed using the EBDA program of McPherson. See McPherson, G. A. J Pharmacol. Methods 14, 213-218 (1985).

rat vas deferens = details: cited from earlier work
B2 receptors = target: T2, B2 receptors (Homo sapiens, UniProt P30411); details: cited from earlier work
T2 sequence (P30411 1-391): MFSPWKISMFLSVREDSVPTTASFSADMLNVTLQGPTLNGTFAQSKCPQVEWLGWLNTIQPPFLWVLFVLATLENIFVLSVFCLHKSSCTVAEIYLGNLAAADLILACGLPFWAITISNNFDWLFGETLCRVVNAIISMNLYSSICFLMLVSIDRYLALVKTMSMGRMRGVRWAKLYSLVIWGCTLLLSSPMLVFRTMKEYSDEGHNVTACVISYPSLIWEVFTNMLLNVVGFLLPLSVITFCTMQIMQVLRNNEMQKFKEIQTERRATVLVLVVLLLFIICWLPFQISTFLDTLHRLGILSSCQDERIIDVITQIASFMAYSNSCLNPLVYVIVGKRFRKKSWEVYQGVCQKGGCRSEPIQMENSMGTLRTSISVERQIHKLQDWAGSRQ

[1] = target: T3, human bradykinin BK-2 receptor protein (human, UniProt P30411 28-391); experiment: competition binding with 100 pM [3H]BK, cloned human BK-2 receptor in membranes
T3 construct: also called human BK-2 bradykinin receptor; cloned BK receptor
T3 sequence: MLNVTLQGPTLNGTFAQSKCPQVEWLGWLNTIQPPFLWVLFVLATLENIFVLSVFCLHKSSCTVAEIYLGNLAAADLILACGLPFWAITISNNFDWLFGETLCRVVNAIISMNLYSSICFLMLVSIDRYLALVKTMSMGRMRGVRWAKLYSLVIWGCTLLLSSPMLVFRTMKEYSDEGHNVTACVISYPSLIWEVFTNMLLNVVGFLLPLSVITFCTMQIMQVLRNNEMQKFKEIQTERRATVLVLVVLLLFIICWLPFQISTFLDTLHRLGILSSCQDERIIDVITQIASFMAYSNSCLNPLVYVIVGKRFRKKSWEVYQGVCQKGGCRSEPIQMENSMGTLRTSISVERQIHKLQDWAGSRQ
Description: (§2) Binding assays are then performed to determine receptor antagonist or agonist interaction. The assays utilized in the instant invention follow the method of Manning et al., *J. Pharmacol. Exp. Ther.*, 237, 504–512 (1986). […] (BRANDEL, Gaithersburg, Md.). The tubes are then rinsed two times with 4 ml ice-cold […] and the filter bound radioactivity is quantitated by liquid scintillation counting. […] The competition and saturation experiments are analyzed using the EBDA program of McPherson. See McPherson, G. A. *J Pharmacol. Methods* 14, 213–218 (1985).
(§3) Binding assays were then performed to determine receptor antagonist or agonist interaction. The assays utilized in the instant invention follow the method of Manning et al., *J. Pharmacol. Exp. Ther.*, 237, 504–512 (1986). […] (BRANDEL, Gaithersburg, Md.). The tubes were rinsed two times with 4 ml ice-cold […] and the filter bound radioactivity was quantitated by liquid scintillation counting. […] The competition and saturation experiments were analyzed using the EBDA program of McPherson. See McPherson, G. A. *J Pharmacol. Methods* 14, 213–218 (1985).

[2] = target: T3, human bradykinin BK-2 receptor protein; experiment: competition binding with 100 pM [3H]BK, membranes of COS-7 cells expressing the receptor
Description: as §2, §3

[3] = target: T4, human bradykinin BK-2 receptor protein (human), P30411; experiment: displacement of 100 pM [3H]BK, cloned human BK-2 receptor in membranes
T4 chain: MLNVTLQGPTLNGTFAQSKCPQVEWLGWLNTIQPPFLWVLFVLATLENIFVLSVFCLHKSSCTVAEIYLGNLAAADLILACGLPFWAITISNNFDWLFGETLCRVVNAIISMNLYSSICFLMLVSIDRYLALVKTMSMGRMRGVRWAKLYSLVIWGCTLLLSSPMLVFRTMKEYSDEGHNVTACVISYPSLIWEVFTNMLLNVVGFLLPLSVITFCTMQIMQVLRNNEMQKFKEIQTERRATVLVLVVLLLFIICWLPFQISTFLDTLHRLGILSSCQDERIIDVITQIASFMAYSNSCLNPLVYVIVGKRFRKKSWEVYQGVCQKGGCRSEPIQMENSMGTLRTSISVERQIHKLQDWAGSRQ

Molecule: N=C(N)NCCC[C@@H](N)C(=O)N[C@@H](CCCNC(=N)N)C(=O)N1C[C@H](O)C[C@H]1C(=O)N1C[C@H](O)C[C@H]1C(=O)NCC(=O)N[C@@H](Cc1cccs1)C(=O)N[C@@H](CO)C(=O)N[C@H](Cc1ccccc1)C(=O)N[C@@H](Cc1cccs1)C(=O)N[C@@H](CCCNC(=N)N)C(=O)O [D-Arg^0-[Hyp^2,3,-Thi^5,8D-Phe^7]BK] (H-[dR]R[Hyp][Hyp]G[2Thi]S[dF][2Thi]R-OH; N-terminus and C-terminus assumed)
- IC50 (human BK-2 receptor): 27 nM

Molecule: N=C(N)NCCC[C@H](NC(=O)[C@H](Cc1cccs1)NC(=O)[C@@H](Cc1ccccc1)NC(=O)[C@H](CO)NC(=O)[C@H](Cc1cccs1)NC(=O)CNC(=O)[C@@H]1CCCN1C(=O)[C@@H]1CCCN1C(=O)[C@@H](N)CCCNC(=N)N)C(=O)O [[Thi^5,8,D-Phe^7]BK] (H-RPPG[2Thi]S[dF][2Thi]R-OH; N-terminus and C-terminus assumed)
- IC50 (human BK-2 receptor): 180 nM

Molecule: CC[C@H](C)[C@H](NC(=O)[C@H](CC(=O)O)NC(=O)[C@H](CC(C)C)NC(=O)[C@H](Cc1c[nH]cn1)NC(=O)[C@@H]1CSSC[C@H](N)C(=O)N[C@@H](CO)C(=O)N[C@H]2CSSC[C@H](NC(=O)[C@H](CCC(=O)O)NC(=O)[C@H](CCCCN)NC(=O)[C@H](CC(=O)O)NC(=O)[C@H](CCSC)NC(=O)[C@H](CC(C)C)NC(=O)[C@H](CO)NC(=O)[C@H](CO)NC2=O)C(=O)N[C@@H](C(C)C)C(=O)N[C@@H](Cc2ccc(O)cc2)C(=O)N[C@@H](Cc2ccccc2)C(=O)N1)C(=O)N[C@H](C(=O)N[C@@H](Cc1c[nH]c2ccccc12)C(=O)O)[C@@H](C)CC [endothelin]
- Competition for BK binding (human BK-2 receptor): No competition

Molecule: CC[C@H](C)[C@@H]1NC(=O)[C@H](Cc2ccc(O)cc2)NC(=O)[C@@H](N)CSSC[C@@H](C(=O)N2CCC[C@H]2C(=O)N[C@@H](CC(C)C)C(=O)NCC(N)=O)NC(=O)[C@H](CC(N)=O)NC(=O)[C@H](CCC(N)=O)NC1=O [oxytocin]
- Competition for BK binding (human BK-2 receptor): No competition

Molecule: Des-Arg^9BK (RPPGFSPF) [BK-1 agonist, BK metabolite]
- Inhibition of BK binding (human BK-2 receptor): 18%
- Pre- or postsynaptic BK like responses (rat vas deferens): inactive
- Activity at B2 receptors (B2 receptors): inactive

Molecule: angiotensin I (DRVYIHPFHL) [peptide]
- Competition for BK binding (human BK-2 receptor): No competition

Molecule: angiotensin II (DRVYIHPF) [peptide]
- Competition for BK binding (human BK-2 receptor): No competition

Molecule: des-Arg^9-[Leu^8]-BK [Des-Arg^9, LeuBK]
- Inhibition of BK binding (human BK-2 receptor): 11%
- Pre- or postsynaptic BK like responses (rat vas deferens): inactive
- Antagonism of BK responses in the vas deferens (rat vas deferens; incubation at high concentrations): failed to antagonize

Molecule: met-lys-BK
- Specificity of binding of BK analogues (rank order) (human BK-2 receptor; competition binding, data not shown): BK>lys-BK>met-lys-BK

B1: Hoe 140, D-Arg^0-[Hyp^3,Thi^5,D-Tic^7,Oic^8]BK (peptide)
peptide: RRPPGFSPFR
modifications: numbered on bradykinin: D-Arg at 0; Hyp at 3; Thi at 5; D-Tic at 7; Oic at 8
notes: Synthetic BK-2 antagonist with non-natural residues
- IC50 [1]: 0.065 nM

B2: met-lys-BK (peptide)
peptide: MKRPPGFSPFR
notes: It is built from its name (Met-Lys + bradykinin)
- binding result [2]: binds

Molecule: [dR]R[Hyp][Hyp]G[2Thi]S[dF][2Thi]R [D-Arg^0-[Hyp^2,3,-Thi^5,8D-Phe^7]BK]
- IC50 [3]: 27 nM

Molecule: CYIQNCPLG (peptide, UniProt P01178 20-28, looked up) [oxytocin]
- binding result [2]: no binding
